The text below walks through data of patent US20240376170A1 (BRIGHT PEAK THERAPEUTICS, published 2024).

Bridges are numbered along the chain shown (N, C = ends). Primed or numbered codes have the meaning given here. [ ]: non-standard residue; d: D form. Ygp(4) = Tyr with amino-capped PEG8 (O-(8x polyethylene glycol-amino)-tyrosine); Yn3(4) = Tyr with azide-capped PEG9 (O-(9x polyethylene glycol-azido)-tyrosine); Ygp = O-(8x polyethylene glycol-amino)-tyrosine (Tyr, amino-capped PEG8); Yn3 = O-(9x polyethylene glycol-azido)-tyrosine (Tyr, azide-capped PEG9); Ygp″ = O-(8x polyethylene glycol-amino)-tyrosine; Yn3″ = O-(9x polyethylene glycol-azido)-tyrosine; hSer = N[C@@H](CCO)C(=O)O; Nle = CCCC[C@H](N)C(=O)O

Assay [1] addresses T1, Avi-tag Fc with human IL-2R beta and IL-2R gamma attached (Acrobiosystems ACRB-ILG-H82F3-25UG) (human, UniProt P14784 27-239; P31785 23-262).
T1 construct: Bought; attached to the SAX2 biosensor; also called CD122 CD132; IL-2R βγ; not shown: Fc and Avi-tag
T1 sequence (looked up) 1: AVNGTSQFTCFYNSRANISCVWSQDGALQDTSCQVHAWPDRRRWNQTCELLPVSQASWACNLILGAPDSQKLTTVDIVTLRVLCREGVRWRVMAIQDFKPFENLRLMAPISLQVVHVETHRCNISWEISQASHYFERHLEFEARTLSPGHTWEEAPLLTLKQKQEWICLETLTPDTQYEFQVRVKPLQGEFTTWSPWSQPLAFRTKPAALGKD
T1 sequence (looked up) 2: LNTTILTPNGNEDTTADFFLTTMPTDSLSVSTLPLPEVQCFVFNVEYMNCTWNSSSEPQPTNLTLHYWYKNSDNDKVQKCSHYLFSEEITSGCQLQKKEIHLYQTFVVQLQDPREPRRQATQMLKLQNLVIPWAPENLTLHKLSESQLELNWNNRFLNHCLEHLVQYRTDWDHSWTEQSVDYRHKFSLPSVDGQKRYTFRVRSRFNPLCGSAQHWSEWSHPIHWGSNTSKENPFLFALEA
The assay is described as follows: BLI (Octet R8), receptor on SAX2 sensor; construct CMP-167, intact (no MMP2). The procedure:
(§1) Bilayer interferometry (BLI) assays were used to measure the binding constants between activatable IL-2 polypeptides (and activated versions thereof) to IL-2 receptor subunits or receptor complexes. BLI assays were conducted on an Octet® R8 instrument. Assay plates were 96 well, polypropylene, F-bottom (chimney well), black microplates (Greiner Bio-one, Cat. No: 655209). The biosensors were Octet® SAX2 (Sartorius, Cat. No: 18-5136). The assay buffer was 1X Kinetic Buffer (Sartorius, Cat. no: 18-5136) or Phosphate Buffered Saline (PBS) that contained 0.02% (v: v) Tween 20 (Polysorbate 20) and 0.1% (w/v) bovine serum albumin (BSA). The sensor was regenerated between measurements in 10 mM glycine pH 2.7 buffer.
(§2) Sensor attached receptors were either recombinant human IL-2 receptor beta containing a His-tag and Avi-tag™ (R&D Systems™) or an Avi-tag™ Fc with human IL-2R beta and IL-2R gamma attached (Acrobiosystems Cat. no: ACRB-ILG-H₈₂F3-25UG). Receptors were reconstituted from lyophilized powder to 500 μg/ml in PBS. Analytes were diluted in Kinetic buffer to 300 nM, then serially diluted to lower concentrations.
For orientation: Biolayer interferometry detects binding as a change in optical thickness at a sensor tip.

For assay [2], the target named is T2, recombinant human IL-2 receptor beta containing a His-tag and Avi-tag (human, UniProt P14784 27-239).
T2 construct: Bought; attached to the SAX2 biosensor; also called CD122; IL-2R β; not shown: His-tag and Avi-tag
T2 sequence (looked up): T1 sequence (looked up) 1
Described as above. The method, then:
as §1, §2

The target of assay [3] is T2, recombinant human IL-2 receptor beta …. The assay is described as follows: BLI (Octet R8), receptor on SAX2 sensor. The method, then:
as §1, §2

Assay [4] addresses T1, Avi-tag Fc with human IL-2R beta and …. Description: BLI (Octet R8), receptor on SAX2 sensor; CMP-165 treated with MMP2 (cleaved). The method, then:
as §1, §2

In assay [5] the target is T2, recombinant human IL-2 receptor beta …. The description is as above. The method, then: as §1, §2
The target of assay [6] is T1, Avi-tag Fc with human IL-2R beta and …. The assay is described as follows: BLI (Octet R8), receptor on SAX2 sensor. The method, then: as §1, §2
Assay [7] shares this target. The assay is described as follows: BLI (Octet R8), receptor on SAX2 sensor; CMP-166 treated with MMP2 (cleaved). The procedure: as §1, §2
Assay [8] concerns the target T2, recombinant human IL-2 receptor beta …. The assay is described as above. The method, then: as §1, §2
Assay [9] deals with T1, Avi-tag Fc with human IL-2R beta and …. Description: BLI (Octet R8), receptor on SAX2 sensor; construct CMP-313, not MMP2-treated. The method, then: as §1, §2
For assay [10], the target named is T2, recombinant human IL-2 receptor beta …. Described as above. The method, then: as §1, §2
For assay [11], the target named is T1, Avi-tag Fc with human IL-2R beta and …. The assay is described as follows: BLI (Octet R8), receptor on SAX2 sensor; CMP-167 treated with MMP2 (cleaved). The procedure:
as §1, §2

Assay [12] has as its target T2, recombinant human IL-2 receptor beta …. The description is as above. The method, then: as §1, §2
Assay [13] concerns the target T1, Avi-tag Fc with human IL-2R beta and …. The assay is described as follows: BLI (Octet R8), receptor on SAX2 sensor; construct CMP-166, intact (no MMP2). The procedure: as §1, §2
Assay [14] has as its target T2, recombinant human IL-2 receptor beta …. Described as above. The method, then:
as §1, §2

Assay [15] has the same target. The assay is described as follows: BLI (Octet R8), receptor on SAX2 sensor; construct CMP-328, not MMP2-treated. The procedure: as §1, §2
Assay [16] has as its target T1, Avi-tag Fc with human IL-2R beta and …. The assay is described as follows: BLI (Octet R8), receptor on SAX2 sensor; construct CMP-165, intact (no MMP2). The procedure:
as §1, §2

For assay [17], the target named is T2, recombinant human IL-2 receptor beta …. Described as above. The procedure: as §1, §2

B1: CMP-167 (ligand)
chain: APTSSSTKKTQLQLEHLLLDLQKILNGINNYKNPKLTR[Nle]L[hSer][Yn3]KF[Ygp][Nle]PKKATELKHLQCLEEELKPLEEVL[hSer]LAQSKNFHLRPRDLISNINVIVLELKGSETTF[hSer]CEYADETATIVEFLNRWITFSQSIISTLT
modifications: bridge N-23; not fully specified (bridges); ends not checked
Broadly, the Kd is the concentration at which binding is half-saturated. By koff is commonly meant the rate constant with which the complex falls apart. For B1, the Kd turned out to be 23.8 nM in assay [1] and 215 nM in [2]. Besides, the koff in assay [3] came to 0.993 s⁻¹.

B2: CMP-165, MMP2 cleaved (ligand)
chain: APTSSSTKKTQLQLEHLLLDLQKILNGINNYKNPKLTR[Nle]L[hSer][Yn3]KF[Ygp][Nle]PKKATELKHLQCLEEELKPLEEVL[hSer]LAQSKNFHLRPRDLISNINVIVLELKGSETTF[hSer]CEYADETATIVEFLNRWITFSQSIISTLT
modifications: also: glutaryl-peptide bridge Ala1 to Lys23 cut by MMP2, site not given here, ring opened
notes: Tested after MMP2 treatment
By kon is commonly meant a measure of how fast the partners come together. Turning to B2, the results for the Kd in [4] and in [5] were 1.88 nM and 1110 nM, respectively. The koff in [6] is 0.00114 s⁻¹; in assay [3], 0.237 s⁻¹. Also, the kon in assay [6] turned out to be 608000 M⁻¹ s⁻¹; in assay [3], 213000 M⁻¹ s⁻¹.

B3: CMP-166, MMP2 cleaved (ligand)
chain: APTSSSTKKTQLQLEHLLLDLQKILNGINNYKNPKLTR[Nle]L[hSer][Yn3]KF[Ygp][Nle]PKKATELKHLQCLEEELKPLEEVL[hSer]LAQSKNFHLRPRDLISNINVIVLELKGSETTF[hSer]CEYADETATIVEFLNRWITFSQSIISTLT
modifications: also: glutaryl-PEG4-peptide bridge Ala1 to Lys23 cut by MMP2, site not given here, ring opened
notes: Tested after MMP2 treatment
As to B3, the Kd stood at 1.21 nM in assay [7] and 794 nM in assay [8]. Further, the figures for the koff in assay [6] and in [3] were 0.000684 s⁻¹ and 0.225 s⁻¹, respectively. The kon in [6] was found to be 567000 M⁻¹ s⁻¹; in assay [3], 283000 M⁻¹ s⁻¹.

B4: CMP-313 (ligand)
chain: APTSSSTKKTQLQLEHLLLDLQKILNGINNYKNPKLTR[Nle]L[hSer][Yn3(4)]KF[Ygp(4)][Nle]PKKATELKHLQCLEEELKPLEEVL[hSer]LAQSKNFHLRPRDLISNINVIVLELKGSETTF[hSer]CEYADETATIVEFLNRWITFSQSIISTLT
modifications: not fully specified; ends and bridges not checked; also: Lys23 side chain carries an attached cleavable peptide moiety (structure only in drawing)
notes: Synthetic IL-2 polypeptide, tested intact
As to B4, the dissociation constant (Kd) in assay [9] turned out to be 3.4 nM; in [10], 163 nM. In assay [6], this molecule displayed a koff of 0.00148 s⁻¹.

B5: CMP-167, MMP2 cleaved (ligand)
chain: APTSSSTKKTQLQLEHLLLDLQKILNGINNYKNPKLTR[Nle]L[hSer][Yn3″]KF[Ygp″][Nle]PKKATELKHLQCLEEELKPLEEVL[hSer]LAQSKNFHLRPRDLISNINVIVLELKGSETTF[hSer]CEYADETATIVEFLNRWITFSQSIISTLT
modifications: ends and bridges not checked; also: MMP2 cleaved, ring opened, cut site and remnants not given here
notes: Tested after MMP2 treatment
For B5, the Kd was found to be 1.55 nM in [11] and 658 nM in assay [12]. Besides, the koff was determined as 0.000923 s⁻¹ in assay [6] and 0.227 s⁻¹ in assay [3]. Further, the results for the kon in assay [6] and in assay [3] were 594000 M⁻¹ s⁻¹ and 345000 M⁻¹ s⁻¹, respectively.

B6: CMP-166 (ligand)
chain: APTSSSTKKTQLQLEHLLLDLQKILNGINNYKNPKLTR[Nle]L[hSer][Yn3]KF[Ygp][Nle]PKKATELKHLQCLEEELKPLEEVL[hSer]LAQSKNFHLRPRDLISNINVIVLELKGSETTF[hSer]CEYADETATIVEFLNRWITFSQSIISTLT
modifications: bridge N-23; not fully specified (bridges); ends not checked; also: sequence of the cleavable peptide in the bridge not given here
Regarding B6, the values for the Kd in [13] and in assay [14] were 16.1 nM and 614 nM, respectively. Further, in assay [3], the koff came to 0.613 s⁻¹.

B7: CMP-328 (ligand)
chain: APTSSSTKKTQLQLEHLLLDLQEILNGINNYKNPKLTR[Nle]L[hSer][Yn3]KF[Ygp][Nle]PKKATELKHLQCLEEELKPLEEVL[hSer]LAQSKNFHLRPRDLISNINVIVLELKGSETTF[hSer]CEYADETATIVEFLNRWITFSQSIISTLT
modifications: bridge 9-23; not fully specified (bridges)
notes: as for B4
As to B7, in [15], the Kd worked out at 0.034 nM. The same molecule returned a koff in [6] of 0.00194 s⁻¹.

B8: CMP-165 (ligand)
chain: APTSSSTKKTQLQLEHLLLDLQKILNGINNYKNPKLTR[Nle]L[hSer][Yn3]KF[Ygp][Nle]PKKATELKHLQCLEEELKPLEEVL[hSer]LAQSKNFHLRPRDLISNINVIVLELKGSETTF[hSer]CEYADETATIVEFLNRWITFSQSIISTLT
modifications: bridge N-23; not fully specified (bridges); ends not checked; also: sequence of the cleavable peptide in the bridge not given here
In the case of B8, the Kd in assay [16] is 0.0261 nM; in assay [17] it was 44200 nM. Besides, in [3], the koff was 0.633 s⁻¹.
